Laboratory results: patent US20260098070A1 (DEM BIOPHARMA, published 2026)
Each block holds one molecule with its values, some of them ahead of it. No end group written: not given here. *: point of attachment. Biotin = O=C1N[C@H]2[C@H](CS[C@H]2CCCCC(=O)*)N1

What was measured:
[1] = molecular target: CLEC10A expressed on transfected HEK293 cells (human) (UniProt Q8IUN9); assay: flow cytometry, live HEK293 transfectants, 5 µg/mL probe in PBS+Ca2+/Mg2+, AF647 anti-human Fc
[2] = molecular target: T1, CD177 ECD-Fc (CD177 extracellular domain with Fc tag) (UniProt Q8N6Q3 22-408, limits assumed); assay: ELISA, immobilized CD177 ECD-Fc, biotinylated peptide pre-incubated with HRP-streptavidin
T1 construct: extracellular domain; also called CD177-Fc; recombinant CD177 ECD; not shown: Fc tag
T1 sequence (looked up): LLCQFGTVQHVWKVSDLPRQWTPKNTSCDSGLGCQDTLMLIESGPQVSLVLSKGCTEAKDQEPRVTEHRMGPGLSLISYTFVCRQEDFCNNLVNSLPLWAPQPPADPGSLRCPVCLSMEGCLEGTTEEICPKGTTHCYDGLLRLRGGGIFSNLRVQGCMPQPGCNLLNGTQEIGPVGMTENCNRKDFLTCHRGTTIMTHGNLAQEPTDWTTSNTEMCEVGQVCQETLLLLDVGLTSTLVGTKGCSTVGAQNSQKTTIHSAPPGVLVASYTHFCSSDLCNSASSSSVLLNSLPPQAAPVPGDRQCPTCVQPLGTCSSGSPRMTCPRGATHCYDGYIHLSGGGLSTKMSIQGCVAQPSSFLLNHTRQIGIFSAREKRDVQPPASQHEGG
Method: To evaluate the binding of aglycosylated hSMAGP ECD to CD177, an hSMAGP ECD peptide (H2N-[…]-Biotin-amide (SEQ ID NO: 62)) was chemically synthesized. An extra lysine residue was added to the C terminus to facilitate biotinylation. Another peptide, with a scrambled hSMAGP ECD sequence (H2N-[…]-Biotin-amide (SEQ ID NO: 63)), was synthesized as a control. Peptide binding to the recombinant CD177 ECD-Fc (CD177 extracellular domain with Fc tag) or hIgG1-Fc (IgG1 domain with Fc tag) negative control was evaluated in an enzyme-linked immunosorbent assay (ELISA). CD177 ECD-Fc and hIgG1-Fc were immobilized to separate Corning 96-well Clear Flat Bottom Polystyrene High Bind Microplates at 4° C. overnight in PBS. Plates were blocked using 5% skim milk. Biotinylated hSMAGP ECD peptide or the scrambled control (10 μg/ml) was pre-incubated with HRP-conjugated streptavidin (5 μg/ml) and added to the plates. In a control assay, an anti-CD177 antibody (Biolegend Cat #315802; 10 μg/ml) was premixed with the biotinylated SMAGP ECD peptide. The signal was developed using TMB substrate. The assay was performed in triplicate.

Chain of CLEC10A expressed on transfected HEK293 cells (human) (Q8IUN9 whole entry, the tested form may be a part): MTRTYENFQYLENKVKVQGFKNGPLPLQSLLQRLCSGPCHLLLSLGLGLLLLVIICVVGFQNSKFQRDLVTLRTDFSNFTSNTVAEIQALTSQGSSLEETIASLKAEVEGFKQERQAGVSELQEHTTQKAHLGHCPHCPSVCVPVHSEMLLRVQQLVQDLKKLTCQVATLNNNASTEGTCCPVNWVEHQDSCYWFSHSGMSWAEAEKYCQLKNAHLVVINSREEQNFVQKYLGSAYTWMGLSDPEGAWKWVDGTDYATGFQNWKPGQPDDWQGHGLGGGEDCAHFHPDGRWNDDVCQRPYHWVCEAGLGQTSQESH

fold change in median fluorescence intensity over control cells [1]: 3.3 fold
Molecule: hSMAGP ECD-hIgG1 Fc (Fc fusion)

binding result [2]: no binding (tested: 10 µg/ml)
B1: aglycosylated scrambled hSMAGP ECD peptide (peptide)
peptide: TRTTLIMESTTPALMLLEPLGSPQDAPTSTEEAPSLK(Biotin)-NH2
modifications: N-terminus assumed
SMILES: CC[C@H](C)[C@H](NC(=O)[C@H](CC(C)C)NC(=O)[C@@H](NC(=O)[C@@H](NC(=O)[C@H](CCCNC(=N)N)NC(=O)[C@@H](N)[C@@H](C)O)[C@@H](C)O)[C@@H](C)O)C(=O)N[C@@H](CCSC)C(=O)N[C@@H](CCC(=O)O)C(=O)N[C@@H](CO)C(=O)N[C@H](C(=O)N[C@H](C(=O)N1CCC[C@H]1C(=O)N[C@@H](C)C(=O)N[C@@H](CC(C)C)C(=O)N[C@@H](CCSC)C(=O)N[C@@H](CC(C)C)C(=O)N[C@@H](CC(C)C)C(=O)N[C@@H](CCC(=O)O)C(=O)N1CCC[C@H]1C(=O)N[C@@H](CC(C)C)C(=O)NCC(=O)N[C@@H](CO)C(=O)N1CCC[C@H]1C(=O)N[C@@H](CCC(N)=O)C(=O)N[C@@H](CC(=O)O)C(=O)N[C@@H](C)C(=O)N1CCC[C@H]1C(=O)N[C@H](C(=O)N[C@@H](CO)C(=O)N[C@H](C(=O)N[C@@H](CCC(=O)O)C(=O)N[C@@H](CCC(=O)O)C(=O)N[C@@H](C)C(=O)N1CCC[C@H]1C(=O)N[C@@H](CO)C(=O)N[C@@H](CC(C)C)C(=O)N[C@@H](CCCCNC(=O)CCCC[C@@H]1SC[C@@H]2NC(=O)N[C@@H]21)C(N)=O)[C@@H](C)O)[C@@H](C)O)[C@@H](C)O)[C@@H](C)O
notes: Pre-incubated with HRP-conjugated streptavidin before addition to the plates; also called scrambled control
